In US20240425583A1, “METHODS AND COMPOSITIONS RELATED TO MCL-1 AND BIM HETERODIMER ANTIBODIES” (priority 2021, published 2024):

B1: HSMCB (SEQ ID NO: 15, SEQ ID NO: 16): MCL-1/BIM heterodimer antibody, CDRs SEQ ID NO: 9-14, variable heavy chain SEQ ID NO: 15, variable light chain SEQ ID NO: 16 (antibody, V domains shown)
VH: MDWIWIMLHLLAAATGLQSQVHLQQSGSELRSPGSSVKLSCKDFDSEVFPIAYMSWVRQKPGHGFEWIGDILPSIGRTIYGEKFEDKATLDADTVSNTAYLELNSLTSEDSAIYYCARQDTYYAMDYWGQGTSVTVSS
VL: MHFQVQIFSFLLISASVIMSRGQIVLTQSPAIMSASPGEKVTITCSASSSVSYMHWVQQKPGTSPKLWIYSTSNLASGVPARFRGSGSGTSYSLTISRMEAEDAATYYCQQRSSYPYTFGGGTKLEIK
B2: HSMCB (SEQ ID NO: 7, SEQ ID NO: 8): MCL-1/BIM heterodimer antibody, CDRs SEQ ID NO: 1-6, variable heavy chain SEQ ID NO: 7, variable light chain SEQ ID NO: 8 (antibody, V domains shown)
VH: MNFGLSLIFLVLVLKGVQCEVQLVESGGDLVKPGGSLKLSCAVSGFTFSSYAMSWVRQTPAKRLEWVATISSGGFATYYPDTVKGRFTISRDNAKNTLYLQMSSLRSEDTAMYYCARHGGGSYGWFAYWGQGTLVTVSE
VL: MLSLAPLLSLLLLCVSDSRAETTVTQSPASLSVATGEKVTIRCITSTDIDDDMNWYQQKPGEPPKLLISEGNTLRPGVPSRFSSSGYGTDFVFTIENTLSEDFADYYCLQSDNMPYTFGGGTKLEIK

Key:
[1] = molecular target: T1, covalent Mcl-1-Bim complex (Homo sapiens, UniProt Q07820); experiment: Flow cytometry detection of covalent Mcl-1-Bim complex immobilized on GSH beads; assay type: binding; settings: directly labeled and secondary antibody detection, FIG. 12
T1 construct: mutated to delete their transmembrane domains; made in house; host or cells: E. coli BL21 (D3) for the Mcl-1 fusion; peptide UV-crosslinked to it
T1 sequence (Q07820 1-327): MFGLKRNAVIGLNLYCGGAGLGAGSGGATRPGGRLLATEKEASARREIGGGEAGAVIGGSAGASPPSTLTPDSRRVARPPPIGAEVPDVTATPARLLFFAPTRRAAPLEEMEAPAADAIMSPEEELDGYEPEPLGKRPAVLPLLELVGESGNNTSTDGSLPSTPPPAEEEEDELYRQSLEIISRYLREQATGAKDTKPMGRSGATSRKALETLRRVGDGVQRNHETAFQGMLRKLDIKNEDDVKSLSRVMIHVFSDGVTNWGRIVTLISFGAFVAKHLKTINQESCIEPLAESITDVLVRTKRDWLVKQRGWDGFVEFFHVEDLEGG
T1 sequence (O43521 146-166 partner): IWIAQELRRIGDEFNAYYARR
Description: In the experiments on the left side of the graph for HSMCB (i.e., the first two columns from the left on the graph), the HSMCB antibody is an antibody having CDRs selected from SEQ ID NO: 1, SEQ ID NO: 2, SEQ ID NO: 3, SEQ ID NO: 4, SEQ ID NO: 5, SEQ ID NO: 6, and having a variable heavy chain selected from SEQ ID NO: 7, and a variable light chain selected from SEQ ID NO: 8. In the next experiment near the middle of the graph for HSMCB (i.e., the second set of two columns in the middle on the graph), the antibody is an antibody having CDRs selected from SEQ ID NO: 9, SEQ ID NO: 10, SEQ ID NO: 11, SEQ ID NO: 12, SEQ ID NO: 13, SEQ ID NO: 14, and having a variable heavy chain selected from SEQ ID NO: 15, and a variable light chain selected from SEQ ID NO: 16. The antibody reactive with BcL-XL-Bim is used as a negative control, and Mcl1 (which recognizes both Mcl-1 monomer and Mcl-1-Bim complex) is used as a positive control. The signals using a directly labeled primary antibody (i.e., the first column in each set of two columns throughout the graph) and a secondary antibody detection system (i.e., the second column in each set of two columns throughout the graph) are shown.
AML patient samples were BH3 profiled in the experiments of this example. […] Patient samples were fixed, permeabilized, stained with HSMCB and anti-Mcl-1 antibody, and measured by flow cytometry. […]

[2] = test system: FFPE breast cancer patient biopsy (BCa_01 NV401); experiment: IHC staining of serial sections from a FFPE breast cancer patient biopsy; design: species or system human; settings: compared with HSBXB, 10× objective, FIG. 8
Description: The image on the left side of FIG. 8 is of an HSMCB antibody having CDRs selected from SEQ ID NO: 9, SEQ ID NO: 10, SEQ ID NO: 11, SEQ ID NO: 12, SEQ ID NO: 13, SEQ ID NO: 14, and having a variable heavy chain selected from SEQ ID NO: 15, and a variable light chain selected from SEQ ID NO: 16.
In these experiments, PDX stains were used for image analysis software from Leica and Halo were compared for quantitative analysis.

[3] = assay type: physicochemical
Experimental: FIG. 2 is a graph showing the selective binding of the MCL-1/BIM heterodimer (HSMCB) antibody to the MCL-1/BIM heterodimer, and the stability of this antibody at 4° C. for about 2 months. Each line in the graph follows the order in the legend (i.e., the top line is for sample 5-01-20b, the next line is for 5-22-20b, the next line is for 5-29b; this pattern is throughout the entire graph). The antibody in this figure is an antibody having CDRs selected from SEQ ID NO: 9, SEQ ID NO: 10, SEQ ID NO: 11, SEQ ID NO: 12, SEQ ID NO: 13, SEQ ID NO: 14, and having a variable heavy chain selected from SEQ ID NO: 15, and a variable light chain selected from SEQ ID NO: 16. […]

Mcl-1 Bim-BH3 complex = molecular target: T2, Mcl-1 Bim-BH3 complex (Homo sapiens, UniProt Q07820); experiment: HSMCB on Mcl-1-Bim non-covalently bound beads; assay type: binding; settings: Bim-BH3 10 uM to 50 uM, FIG. 14
T2 construct: mutated to delete their transmembrane domains; made in house; host or cells: E. coli BL21 (D3)
T2 sequence (Q07820 1-327 limits assumed): as the sequence (Q07820 1-327) above

Molecule | Mcl-1-Bim bead detection [1] | IHC reactivity with tissue sample [2] | stability of the antibody at 4° C. [3] | recognition of Mcl-1 Bim-BH3 complex on beads (Mcl-1 Bim-BH3 complex)
B1 | demonstrated | higher reactivity | about 2 months | 
B2 | demonstrated |  |  | recognize the Mcl-1 Bim-BH3 complex at a significant level
